# T1: recombinant WNV capsid mutant rC(S36A), N-terminal hexa-histidine tag, expressed in E. coli from pQE30, Q9Q6P4
# T1 chain: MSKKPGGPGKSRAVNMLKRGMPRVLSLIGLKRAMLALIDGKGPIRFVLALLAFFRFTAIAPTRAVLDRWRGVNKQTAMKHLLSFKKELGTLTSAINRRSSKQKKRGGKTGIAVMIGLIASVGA
# T2: recombinant WNV capsid protein with an N-terminal hexa-histidine tag, expressed in E. coli from pQE30, Q9Q6P4
# T2 chain: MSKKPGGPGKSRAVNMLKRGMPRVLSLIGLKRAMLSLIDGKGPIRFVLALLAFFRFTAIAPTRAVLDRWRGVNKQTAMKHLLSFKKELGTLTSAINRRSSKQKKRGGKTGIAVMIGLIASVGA
# B1: recombinant CK2 (whole enzyme, Biomol) (protein)
# chain 1: MSGPVPSRARVYTDVNTHRPREYWDYESHVVEWGNQDDYQLVRKLGRGKYSEVFEAINITNNEKVVVKILKPVKKKKIKREIKILENLRGGPNIITLADIVKDPVSRTPALVFEHVNNTDFKQLYQTLTDYDIRFYMYEILKALDYCHSMGIMHRDVKPHNVMIDHEHRKLRLIDWGLAEFYHPGQEYNVRVASRYFKGPELLVDYQMYDYSLDMWSLGCMLASMIFRKEPFFHGHDNYDQLVRIAKVLGTEDLYDYIDKYNIELDPRFNDILGRHSRKRWERFVHSENQHLVSPEALDFLDKLLRYDHQSRLTAREAMEHPYFYTVVKDQARMGSSSMPGGSTPVSSANMMSGISSVPTPSPLGPLAGSPVIAAANPLGMPVPAAAGAQQ
# chain 2: not shown
# B2: purified recombinant CK2α subunit protein (Biomol) (protein)
# chain: MSGPVPSRARVYTDVNTHRPREYWDYESHVVEWGNQDDYQLVRKLGRGKYSEVFEAINITNNEKVVVKILKPVKKKKIKREIKILENLRGGPNIITLADIVKDPVSRTPALVFEHVNNTDFKQLYQTLTDYDIRFYMYEILKALDYCHSMGIMHRDVKPHNVMIDHEHRKLRLIDWGLAEFYHPGQEYNVRVASRYFKGPELLVDYQMYDYSLDMWSLGCMLASMIFRKEPFFHGHDNYDQLVRIAKVLGTEDLYDYIDKYNIELDPRFNDILGRHSRKRWERFVHSENQHLVSPEALDFLDKLLRYDHQSRLTAREAMEHPYFYTVVKDQARMGSSSMPGGSTPVSSANMMSGISSVPTPSPLGPLAGSPVIAAANPLGMPVPAAAGAQQ
# Columns and labels:
# [1] = target: T1, recombinant WNV capsid mutant rC(S36A), …
# [2] = target: T2, recombinant WNV capsid protein with an …
# [3] = target: CKII-Pep, commercial CK2 substrate peptide
Protein,"in vitro phosphorylation (CK2 kinase assay, autoradiography) [1]","in vitro phosphorylation (32P-ATP kinase assay, autoradiography) [2]",dot-blot kinase assay [3],in vitro phosphorylation (kinase assay with a single recombinant subunit) [2]
B1,the phosphorylation signal was totally absent from C(S36A) while the wild rC still was labeled in the in vitro assay,purified fractions yielded was phosphorylated by CK2,Only Cp(30-48) and CK-II-Pep peptides reacted positively to CK2 assay,
B2,,,,Neither of the subunits was able to phosphorylate the protein by themselves

# Source: patent publication US20100256217
